From US20200347131A1 (SICHUAN KELUN BIOTECH BIOPHARMACEUTICAL, published 2020) come the findings set out here.

Residue numbers refer to the chain shown, from its start.

Assay [1] deals with T1, human LAG-3 (His tag) (human, UniProt P18627 23-450, limits assumed).
T1 construct: also called LAG-3-His antigen; not shown: His tag
T1 sequence (looked up): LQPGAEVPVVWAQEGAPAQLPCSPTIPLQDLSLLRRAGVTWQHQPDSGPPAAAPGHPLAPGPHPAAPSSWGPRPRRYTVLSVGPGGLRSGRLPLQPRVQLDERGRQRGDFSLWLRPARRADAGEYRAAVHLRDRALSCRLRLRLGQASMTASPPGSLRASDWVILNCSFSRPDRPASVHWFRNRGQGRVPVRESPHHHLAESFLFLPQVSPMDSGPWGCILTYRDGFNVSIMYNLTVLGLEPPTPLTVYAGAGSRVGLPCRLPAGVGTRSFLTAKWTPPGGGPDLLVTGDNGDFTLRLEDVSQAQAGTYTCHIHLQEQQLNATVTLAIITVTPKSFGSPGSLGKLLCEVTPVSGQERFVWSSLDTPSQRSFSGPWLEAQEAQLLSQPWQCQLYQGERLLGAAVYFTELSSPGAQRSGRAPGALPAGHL
As to the kind of experiment: BLI (ForteBio Octet), LAG-3 His on Ni-NTA sensor. As for the experimental part: (§1) The binding affinity constant of the purified murine monoclonal antibody #27 to the antigen was determined by Bio-Layer Interferometry (BLI) using the instrument of a PALL company's ForteBio Octet RED & QK system.
On the technique in general: In BLI a coated tip is dipped into the sample, and binding shifts an interference pattern.

Assay [2] has as its target T1, human LAG-3 (His tag). The assay is described as follows: BLI (ForteBio Octet), LAG-3 His on Ni-NTA sensor, antibody 3.125-100 nM. On the procedure:
as §1

In assay [3] the target is T2, human LAG-3 (Uniport entry No. P18627) (human, UniProt P18627 23-450, limits assumed).
T2 sequence (looked up): T1 sequence (looked up)
The assay is described as follows: indirect ELISA on plate-coated human LAG-3 (0.1 ug/ml), HRP goat anti-mouse IgG detection. For orientation: In an ELISA, binding on a coated surface is turned into a signal by an enzyme label.

Assay [4] deals with T1, human LAG-3 (His tag). The assay is described as follows: FACS competition, antibody blocks the binding of LAG-3-His (12 ug/mL) to MHC II positive A431 cells. On the procedure: Human epidermal cancer cell line A431 (purchased from Nanjing Cobioer Company) is an MHC II positive expression cell line. […] The method was also used to evaluate the biological activity of relevant antibodies.
A431 cells were trypsinized, resuspended in PBS, and the cell density was adjusted to 5×10⁶ cells/mL, 100 μL/well. […] The cells were washed twice with pre-cooled PBS, resuspended in 100 µL of solution containing […] of PE anti-His, and incubated at 4° C. for 0.5 hours, washed twice with pre-cooled PBS, and resuspended in PBS.

For assay [5], the target named is T3, cynomolgus monkey LAG-3 on CHO cells (CHO-cynoLAG-3) (cynomolgus monkey).
T3 construct: whole, on cells; Cells prepared by Kelun Biotech Co., Ltd
As to the kind of experiment: flow cytometry, FITC-labelled antibody on CHO-cynoLAG-3 cells. As for the experimental part:
(§2) 5×10⁵ cells per tube of CHO-cynoLAG-3 and CHO-hLAG-3 cells were taken respectively. […] The dilutions were mixed with cells at a ratio of 1:1, and incubated for 30 minutes at room temperature, followed by washing 3 times with pre-cooled PBS and detection by flow cytometry (Benckman, model CytoFlex). The signal values were input into GraphPad Prism to calculate the EC₅₀ values.
In general terms: A flow cytometer gives signals particle by particle.

The target of assay [6] is T4, LAG-3-Tag1 of the LAG-3/MHC II kit (CISBIO, ADK000CLAPEF) (human, UniProt P18627 23-450).
T4 construct: Kit reagent; The construct is not described
The assay is described as follows: HTRF competition, antibody blocks the binding of LAG-3-Tag1 to MHC II-Tag2 (CISBIO kit). On the procedure:
Anti-Tag1-Eu³⁺ is a donor of HTRF (Homogeneous Time-Resolved Fluorescence), and anti-Tag2-XL665 acts as a receptor for HTRF. When the two molecules are close to each other, the fluorescence energy is transferred from the donor to the acceptor, accompanied by appearance of a fluorescent signal at 650 nm.
After mixing the anti-Tag1-Eu³⁺ and anti-Tag2-XL665 in equal volumes, each well was added with 10 μl, mixed well, sealed with a film, and incubated for 1 hour at room temperature.

Assay [7] has as its target T5, human LAG-3 on CHO cells (CHO-hLAG-3) (human, UniProt P18627 23-525).
T5 construct: whole, on cells; Cells prepared by Kelun Biotech Co., Ltd; also called CHO cells expressing human LAG-3
T5 sequence (looked up): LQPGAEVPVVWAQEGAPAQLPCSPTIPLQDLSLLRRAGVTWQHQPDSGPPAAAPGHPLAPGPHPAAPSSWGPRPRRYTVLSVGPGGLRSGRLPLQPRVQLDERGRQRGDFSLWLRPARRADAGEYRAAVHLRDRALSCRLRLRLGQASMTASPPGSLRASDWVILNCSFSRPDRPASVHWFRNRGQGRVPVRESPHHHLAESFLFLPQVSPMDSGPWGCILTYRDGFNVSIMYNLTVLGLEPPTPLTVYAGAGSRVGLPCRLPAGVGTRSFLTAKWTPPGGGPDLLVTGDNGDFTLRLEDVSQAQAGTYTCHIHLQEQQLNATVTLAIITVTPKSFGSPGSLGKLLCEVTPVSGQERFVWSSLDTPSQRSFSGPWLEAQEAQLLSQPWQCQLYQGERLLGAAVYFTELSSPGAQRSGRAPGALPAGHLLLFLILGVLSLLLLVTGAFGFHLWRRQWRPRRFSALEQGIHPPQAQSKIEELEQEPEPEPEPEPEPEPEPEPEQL
The assay is described as follows: flow cytometry, FITC-labelled antibody on CHO-hLAG-3 cells. As for the experimental part: as §2

B1: murine monoclonal antibody #27 (antibody, IgG4, V domains shown)
VH: DVHLQESGPDLVKPSQSLSLTCTVTGYSITSFYSWHWIRQFPGNKLEWMGCIQYSGDTDSNPSLKSRISITRDTSENQLFLHLNSVTTEDTATYYCARSPYDSDPYYVMDYWGQGTSVTVSS
VL: DIVMSQSPSSLAVSVGEKITMTCKSSQSLLYSGNQKNYLAWYQQKPGQSPTLLIYWASTRDSGVPDRLTGSGSGTDFTLTISSVKAEDLAVYYCQQYYAYPYTFGGGTKLETK
notes: Purified from hybridoma supernatant; also called murine antibody #27; monoclonal antibody produced by hybridoma cell line #27 (CCTCC NO.C2017183)
The term Kd denotes the equilibrium constant for the complex coming apart. By koff is commonly meant the rate constant with which the complex falls apart. In general, kon refers to the rate constant with which the complex forms. Broadly, the EC50 (read off the curve) is the midpoint of the concentration-response curve. The IC50 is the concentration that gives 50% inhibition. In assay [1], B1 had a Kd of 319 pM, a koff of 3.86e-05 s⁻¹ and a kon of 121000 M⁻¹ s⁻¹. In assay [2], this molecule registered a dissociation constant Kd of 319 pM, a koff of 3.86e-05 s⁻¹ and a kon of 121000 M⁻¹ s⁻¹. Moreover, the “EC50 (read off the curve)” value in assay [3] was roughly 0.05 µg/mL. Further, in assay [4], the IC50 came out at 10400 pM and the Maximum inhibition % was found to be 84.2%.

B2: human-mouse chimeric antibody AB12T2 (antibody, human IgG4 S228P, kappa, V domains shown)
VH: B1 VH
VL: DIVMSQSPSSLAVSVGEKITMTCKSSQSLLYSGNQKNYLAWYQQKPGQSPTLLIYWASTRDSGVPDRLTGSGSGTDFTLTISSVKAEDLAVYYCQQYYAYPYTFGGGTKLETKR
On to B2, for which, in assay [1], the Kd is 574 pM, the koff turned out to be 4.97e-05 s⁻¹ and the kon amounted to 100000 M⁻¹ s⁻¹.

B3: reference antibody AB12T1 (BMS 986016) (antibody, human IgG4 S228P, kappa, V domains shown)
VH: QVQLQQWGAGLLKPSETLSLTCAVYGGSFSDYYWNWIRQPPGKGLEWIGEINHRGSTNSNPSLKSRVTLSLDTSKNQFSLKLRSVTAADTAVYYCAFGYSDYEYNWFDPWGQGTLVTVSS
VL: EIVLTQSPATLSLSPGERATLSCRASQSISSYLAWYQQKPGQAPRLLIYDASNRATGIPARFSGSGSGTDFTLTISSLEPEDFAVYYCQQRSNWPLTFGQGTNLEIKR
notes: also called positive control antibody AB; FITC-AB12T1
Broadly, the EC50 is the midpoint of the concentration-response curve. As for B3, in assay [5], the EC50 came out at 793000 pM.

B4: humanized antibody AB12T3 (antibody, human IgG4, kappa, V domains shown)
VH: DVQLQESGPGLVKPSQTLSLTCTVTGYSITSFYSWHWIRQHPGKGLEWMGCIQYSGDTDSNPSLKSRITITRDTSENQLSLKLSSVTAADTAVYYCARSPYDSDPYYVMDYWGQGTLVTVSS
VL: DIVMSQSPDSLAVSLGERATITCKSSQSLLYSGNQKNYLAWYQQKPGQPPTLLIYWASTRDSGVPDRLTGSGSGTDFTLTISSLQAEDVAVYYCQQYYAYPYTFGQGTKLEIKR
In assay [1], B4 yielded a dissociation constant (Kd) of 546 pM, a koff of 5.17e-05 s⁻¹ and a kon of 94700 M⁻¹ s⁻¹. Moreover, the IC50 in assay [6] worked out at 9.45 µg/mL.

B5: humanized antibody AB12T5 (antibody, human IgG4, kappa, V domains shown)
VH: B4 VH with D1Q, T25S, M49I, I68V, T71S, R72V, E76K, L79F, L117S
VL: B4 VL with S5T, T51K, L68F, T69S, Q106G
For B5, in assay [1], the Kd was 365 pM, the koff was determined as 2.28e-05 s⁻¹ and the kon was 92400 M⁻¹ s⁻¹.

B6: humanized antibody AB12T6 (antibody, human IgG4, kappa, V domains shown)
VH: B4 VH with T17S, T25S, D59Y, S60Y, I68V, T71S, R72V, E76K, L79F
VL: B4 VL with T51K, L68F, T69S, Q106G, I112T
B6 yielded a Kd in assay [1] of 378 pM.

B7: humanized antibody AB12T4 (antibody, human IgG4 S228P, kappa, V domains shown)
VH: B4 VH with H41F, S80F, V93T
VL: B4 VL with A19I, I21M, P49S, L84V
notes: also called FITC-AB12T4
Consider B7, for which, in assay [1], the Kd worked out at 258 pM, the dissociation rate constant (koff) worked out at 3.09e-05 s⁻¹ and the kon worked out at 120000 M⁻¹ s⁻¹. This molecule also returned a concentration giving a half-maximal response (EC50) in assay [7] of 12800 pM. The same molecule yielded an EC50 in assay [5] of 803000 pM. The IC50 in assay [6] stood at 6.7 µg/mL. In assay [4], this molecule had an IC50 of 12700 pM and a Maximum inhibition % of 89.3%.

B8: humanized antibody AB12T7 (antibody, human IgG4, kappa, V domains shown)
VH: QVQLQESGPGLVKPSQTLSLTCTVSGYSITSFYSWSWIRQHPGKGLEWIGYIQYSGDTYYNPSLKSRVTISVDTSKNQFSLKLSSVTAADTAVYYCARSPYDSDPYYVMDYWGQGTLVTVSS
VL: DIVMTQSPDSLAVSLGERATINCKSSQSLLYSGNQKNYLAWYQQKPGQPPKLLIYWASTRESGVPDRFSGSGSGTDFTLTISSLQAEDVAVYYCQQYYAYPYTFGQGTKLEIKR
Consider B8, for which, in assay [1], the Kd worked out at 359 pM, the koff came out at 2.36e-05 s⁻¹ and the kon was found to be 65800 M⁻¹ s⁻¹.
